Source: IntAct's records for PubMed 22904282

B1: DNA-directed RNA polymerase subunit beta (Mycobacterium tuberculosis (strain ATCC 25618 / P9WGY9 (parent)
chain: MLEGCILADSRQSKTAASPSPSRPQSSSNNSVPGAPNRVSFAKLREPLEVPGLLDVQTDSFEWLIGSPRWRESAAERGDVNPVGGLEEVLYELSPIEDFSGSMSLSFSDPRFDDVKAPVDECKDKDMTYAAPLFVTAEFINNNTGEIKSQTVFMGDFPMMTEKGTFIINGTERVVVSQLVRSPGVYFDETIDKSTDKTLHSVKVIPSRGAWLEFDVDKRDTVGVRIDRKRRQPVTVLLKALGWTSEQIVERFGFSEIMRSTLEKDNTVGTDEALLDIYRKLRPGEPPTKESAQTLLENLFFKEKRYDLARVGRYKVNKKLGLHVGEPITSSTLTEEDVVATIEYLVRLHEGQTTMTVPGGVEVPVETDDIDHFGNRRLRTVGELIQNQIRVGMSRMERVVRERMTTQDVEAITPQTLINIRPVVAAIKEFFGTSQLSQFMDQNNPLSGLTHKRRLSALGPGGLSRERAGLEVRDVHPSHYGRMCPIETPEGPNIGLIGSLSVYARVNPFGFIETPYRKVVDGVVSDEIVYLTADEEDRHVVAQANSPIDADGRFVEPRVLVRRKAGEVEYVPSSEVDYMDVSPRQMVSVATAMIPFLEHDDANRALMGANMQRQAVPLVRSEAPLVGTGMELRAAIDAGDVVVAEESGVIEEVSADYITVMHDNGTRRTYRMRKFARSNHGTCANQCPIVDAGDRVEAGQVIADGPCTDDGEMALGKNLLVAIMPWEGHNYEDAIILSNRLVEEDVLTSIHIEEHEIDARDTKLGAEEITRDIPNISDEVLADLDERGIVRIGAEVRDGDILVGKVTPKGETELTPEERLLRAIFGEKAREVRDTSLKVPHGESGKVIGIRVFSREDEDELPAGVNELVRVYVAQKRKISDGDKLAGRHGNKGVIGKILPVEDMPFLADGTPVDIILNTHGVPRRMNIGQILETHLGWCAHSGWKVDAAKGVPDWAARLPDELLEAQPNAIVSTPVFDGAQEAELQGLLSCTLPNRDGDVLVDADGKAMLFDGRSGEPFPYPVTVGYMYIMKLHHLVDDKIHARSTGPYSMITQQPLGGKAQFGGQRFGEMECWAMQAYGAAYTLQELLTIKSDDTVGRVKVYEAIVKGENIPEPGIPESFKVLLKELQSLCLNVEVLSSDGAAIELREGEDEDLERAAANLGINLSRNESASVEDLA
partner: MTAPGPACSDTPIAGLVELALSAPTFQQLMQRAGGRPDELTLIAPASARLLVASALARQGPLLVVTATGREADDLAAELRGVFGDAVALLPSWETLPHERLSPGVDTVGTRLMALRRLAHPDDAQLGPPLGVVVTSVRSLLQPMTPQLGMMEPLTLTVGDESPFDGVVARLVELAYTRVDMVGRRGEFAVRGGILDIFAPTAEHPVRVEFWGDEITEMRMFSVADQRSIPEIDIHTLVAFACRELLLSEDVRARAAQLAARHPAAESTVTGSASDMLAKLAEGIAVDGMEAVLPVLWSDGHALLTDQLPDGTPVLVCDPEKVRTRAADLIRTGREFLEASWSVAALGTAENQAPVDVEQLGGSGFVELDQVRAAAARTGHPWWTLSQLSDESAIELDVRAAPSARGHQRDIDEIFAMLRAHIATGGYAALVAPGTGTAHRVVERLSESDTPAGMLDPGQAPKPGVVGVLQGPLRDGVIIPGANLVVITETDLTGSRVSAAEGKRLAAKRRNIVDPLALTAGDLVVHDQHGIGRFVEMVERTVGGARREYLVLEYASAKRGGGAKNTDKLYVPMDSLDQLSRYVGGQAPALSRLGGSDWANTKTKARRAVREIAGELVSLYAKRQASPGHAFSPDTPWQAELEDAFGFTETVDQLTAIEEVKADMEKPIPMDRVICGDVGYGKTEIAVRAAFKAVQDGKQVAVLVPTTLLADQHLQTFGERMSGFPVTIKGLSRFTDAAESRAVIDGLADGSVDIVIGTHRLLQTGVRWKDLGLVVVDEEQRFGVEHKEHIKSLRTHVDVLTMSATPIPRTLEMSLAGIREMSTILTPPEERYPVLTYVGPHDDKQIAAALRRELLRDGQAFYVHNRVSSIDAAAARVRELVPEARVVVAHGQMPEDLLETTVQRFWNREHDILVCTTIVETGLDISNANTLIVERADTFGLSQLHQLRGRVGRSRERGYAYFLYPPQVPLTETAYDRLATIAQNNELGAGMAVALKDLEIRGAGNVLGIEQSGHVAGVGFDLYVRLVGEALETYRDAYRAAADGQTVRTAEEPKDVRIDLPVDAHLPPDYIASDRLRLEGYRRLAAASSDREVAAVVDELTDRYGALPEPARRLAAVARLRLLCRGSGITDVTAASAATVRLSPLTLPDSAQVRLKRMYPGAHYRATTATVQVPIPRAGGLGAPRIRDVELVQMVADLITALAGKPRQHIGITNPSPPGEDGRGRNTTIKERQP
B2: DNA-directed RNA polymerase subunit beta (Mycobacterium tuberculosis (strain ATCC 25618 / P9WGY9 (parent)
chain: B1 chain
B3: RNA polymerase-binding transcription factor CarD (Mycobacterium tuberculosis (strain ATCC 25618 / P9WJG3 (parent)
chain: MIFKVGDTVVYPHHGAALVEAIETRTIKGEQKEYLVLKVAQGDLTVRVPAENAEYVGVRDVVGQEGLDKVFQVLRAPHTEEPTNWSRRYKANLEKLASGDVNKVAEVVRDLWRRDQERGLSAGEKRMLAKARQILVGELALAESTDDAKAETILDEVLAAAS

Variants of: B1
Conditions: with mfd_myctu mfd

Row | Variant | effect of a mutation on the interaction
1 | S149A | decreasing interaction strength
2 | I147A | disrupting interaction
3 | E138R | disrupting interaction

Variants of: B2
Conditions: with card_myctu carD

Row | Variant | effect of a mutation on the interaction
4 | I147A | disrupting interaction
5 | S149A | decreasing interaction
6 | E138R | disrupting interaction

Variants of: B3
Conditions: with rpob_myctu rpoB

Row | Variant | effect of a mutation on the interaction
7 | MIFKVGDTVVYPHHGAALVEAIETETIKGEQKEYLVLKVAQGDLTVRVPAENAEYVGVRDVVGQEGLDKVFQVLRAPHTEEPTNWSRRYKANLEKLASGDVNKVAEVVRDLWRRDQERGLSAGEKRMLAKARQILVGELALAESTDDAKAETILDEVLAAAS [R25E] | decreasing interaction strength
8 | MIFKVGDTVVYPHHGAALVEAIETRTIKGEQKEYLVLKVAQGDLTVEVPAENAEYVGVRDVVGQEGLDKVFQVLRAPHTEEPTNWSRRYKANLEKLASGDVNKVAEVVRDLWRRDQERGLSAGEKRMLAKARQILVGELALAESTDDAKAETILDEVLAAAS [R47E] | decreasing interaction strength
